The nature of this data set: soluble on expression in E. coli; label from the status in PepcDB or PDB records.
Turning to “MASSIDPLTRLHGILSSYLSEVLGVDRSVVERLLAPPPRKEYGDLGFPLMRFARSSNASADSIVESLRGKLWERGITWASPTLEAGYLNIVFDVEKLGDEVFRLLASGWRPSTARTSRPETIVVEHTSANPIHPLHLGHARNSSLGDALARLLEARGHRVNRRFYVDDVGRQAVVASLGFKLSGVTPRELASRMGVKVDHAVGWVYAVTHNALETVTARKRGDTSKVDEALSTLARLKERGDREVFDRILEAVGSLDDPEGLVSEMMRKYERGEEPEKSLIRGVVSAVLEGFRETLGRFGVDFDDWDWESDLLWSGLVNKIIEEARRSPFLTTHKDAIALDIPRIVREVLARDPEAASTIKLPRSLEIPPLILVRSDGTTLYTTRDLAYSVYKFRVTGADRVINVIGADQRLPQLQIRLALLGLGYRREALNMMHYDYEIVSLPGRRMSSRRGEYVTLDELLEMAKARSVREVESRNPGADRDWIESTAEKIAVGAVRFALVRPGRLKPITLDVERILDLKENTAPYLQYTYARASSILEKHGEIDYLKAHPASLEEGSRRELFVEALRFPLVSAKAADDLAPEDLASYLLRLADMFNSWYQKDSVIHEEWEGARHAKAALVLLVKSVIGEGLRLLGVEPLEKM”, the “soluble on expression in E. coli” value was “soluble”.
In the case of “MAENYQQAAKDIIQLIGMDNIISVTHCQTRLRFILKDHEQVDGKQLEKIDLVKGVFYNGGQYQVILGTGIVTKVYDEIEKLGINVVSKAEQTAI”, the “soluble on expression in E. coli” value is listed as “not soluble”.
For “GGGGGGMGSPYEYQPEVKWYHVLWDMRNKQFRQWYLKKKYRDMRIAYKYESHILYQKAGMGFLMAAVFMSIFSSDLAVAVFRWPTEDPNELLKSQVWQKYHNQLNERKEYADKLLQDSNYIHRKNNPGE” the value was “soluble”; for “MGSDKIHHHHHHMNKPKVPPTITEQPDEQTFAYLLAHIQQTRQQVFAQVNTALIELYWSVGKTISEKVVSAGWGKGVVKQLAAYLASQAPDIKGFSDKNLWRMKQFYETYQHDIKLASLVRVLPWTHNTIIFSRCKSNREREHYLMLVQRERLSSRELERHINAAHFERSLIEQPKLSAVLRQSHPIANTIFKDNYTLEFLGLPSSHSESDLQKAIINNLKTFILELGKDFIFIDEEYRLQVGNQDFYIDLLFFHRGLAALVAFELKIGKFSPQHLGQLDFYLEALDRDVKKPHENPSIGVLLCRDKDDEVVEYALSRNLSPTLVAQYQCQMPDKQLLQAKLHQLLQDLPAQDELASQHMTEQMPRQGEYNE”, “not soluble”; for “MLNTKSPSPANSNYDFALRHERVKLIARALKQFGVYITRTTQAMREVASCLSLVGQSYHEVAQCVNNTNPHSRADQDCYISFNRQLVESYGANLQNAATLFSAEMMNIKNGEQFLSYNKSVHRTVMTRLHDVLKMAQRTRDLGDDVKAELKKATSCRKVVSRKEAKYIRKGRPLTESKLYVRQSERMRKHDQAYEAKLRTFDTEYESLMQRQLYVAGHTMDDFLDMNTVYLSHILKVLGCLAPNGAEAIQKMLDSGEKLSDLLGIAPEDQLGCRLRAQNVDVLNSSNVTPVKRGVGATPGKGTPAKSSCCGSSHNFTSYYQNRRQAALYVEGAPPTARALGEDSRGSSEPCQTLSETPERQLISNQTPLRATFGSAAICRAASHSYSAAEPAAPSPLQPPSFPAAVRRVDAAPVPYVKPLAIGLHASCGSPGTTTDAAKQTCPAGNAAPAAWVVKTGGRRGSVCDTTNSRTRVELSLGHAQFDDDNTAAGAPPAACLAPAPPPAQYSEERPMERPLGRSEVPAAQAAMFGLDVARSAAPFDDQLVADSCRRTSLLSLKPVALFPLDVSESSISRKVAPRTSAATTSVANPSTQQRSRRDRKKHKTTKVVAAARGVPLPGTASAPPDEDTMSRSTSTQSQEALESSIHGYHAAHYHCPPPQQLHNLKQHPQRDSAPVSLAHFQMELTGCSGDAPCQWRNDGLCSEAGGVSGRSQRLSTSYGLDSPTPTPQPFALGTHAWEDSQVRPCSSA”, “not soluble”.
To “MGSDKIHHHHHHMTNVIIEKISAKEVFKGAKIKVMITTMTNISIGYDIIEVNNPEEAIADVENVIAPELIGYPATDIDFIDSLICETSVNNPTVAMGISISVARAASNSLDIPLFKFLGGALTTELPIVASGILVDKDKNELIPIVMADSIEDIVNLYLKLTDVLSHDYSIVNIDGAYTCKDIFNEIPKIRNLIDEIKEDEDLDILLGLSSKKETVKDKDLSQIDYLEVEEPVEFDGFLCTDSIYEESDFVKVFPYEMGTITEMYYYINYIMDKGLYPVIFGNNSSFAHIAVSFKVPFLRPKLSSNVLNEVWNIERTIMNPNIRRF” belongs “not soluble”; to “MLKVDKVFPWETFRGKLESPYSKKPKWDVILLLKVLLIKFVYEISWLEGEIRDSKMFMKFLGGKVHQKSILLLQETVVDEGERMWTTLMTQQGLRQGDLEHHHHHH”, “not soluble”.
In the case of “MGSDKIHHHHHHMEDTQSVLQEYGLTAQFIEPVSPLVWKVYTDYGIFALKKLKEGRGKHFTDHMVAIEEKGFRSFVPVYRTNSGEFFSAGIQYGDIYYLMPWLQFDQEEERDQKHAYLFRETARLHERTAQELKVRRDEIERYYGQTKKKWEQDKIFYEQFVDRAEKEWYLSPFELQAITYFSETISAVNFALERLEDWYESAKEKDVSRVVMNHGSLSIHHFLYNDAGTGYFTNFERASVGPPQNDLLGFYTKMFRGFPKACPECVEWFYGYTKSFPLREAEVSLFLSYMAYPAAMYKVLNGYQTGKRQHEKEECTQLLKAYWQMKNIEPFVMKIHQIEQEKKFQAENESTS”, the “soluble on expression in E. coli” value was “not soluble”.
Regarding “MAHHHHHHMPSMDSLRTAVDNAPLLVNLLRLIRNARSPNYKDHEKGPVTFHFGGLSMRDTGSYEAAEELWRQSSWSSGALAPNAAGPFRGPLHLVVYLNHSPVEVWTLQDYREPATDHSVPRDFEQLEALNTLVRVLFAHLRCQDIYGVVLQSCVTATDDANNHFPASPNGNVSSPPHFPPPRNASLSRARTPHSPANHVSLRLFRSAEDCPTMPVHARRQYLWSSDDFVRVDVTMDRTWRHHSWVQPGTQAASPVLAAGDRERDTAVCAAGERSSPIRTASPGLRHFGSEGDTRSQSISPEAMGSLDKSSLPTPYLAPAATLALSSHLSRSPRTNLSPLMPGSRLSPAQGVSEFALPPADVSSPFDCDRSRQSRSSPPIMHSCVFASSHPAGGGGATYTAAVGAVNQVEDAVWLSNAEHVRRMGTLVCSRKQSPSASSSPVMGKKPRNSFISQKHEMGSLVPSISIGALSGIGFDRRLLSSDVDLEDLAAETASSGSSASVPNSAAMEQLVSLLGLCSKVKLQHVPSAPFGDLVLSLNLREVP”, the “soluble on expression in E. coli” value was “not soluble”.
Consider “MGSDKIHHHHHHMKLYAENILLNDGWASKQTITIEQGIITAVDAGKIEGAEIAKGAVIPGMVNCHSHAFQRAFAGFSEQGSEGQDSFWTWRKIMYQFLAQLTELDAKNIAKQLYIEMLKMGYTRVAEFHYLHHDIDGSTYNSSVTTDKSASLATMAQAIFDAAKESGIGLTLLPVLYQHSGFGEQTPSDGQKRFINSTEQFNQLVSDCFTLSEQYSNTNVGIAPHSLRAVDKTSLLSAVKHVRSLDNQAPIHIHISEQQKEVDDCLAHFGQRPVQWLLDNVELDKHWCLIHATHIDEAERKGIIAKEAIAGICPTTEANLGDGIFPTTEFLADKGTIAIGSDSHISVNPIEELRWLEYAQRLIKQQRAILATDEQASVGQNLWQQAAIGGAQSTNSNTGSLAIGKQADLLVLDKDKTKLFASASQQLLDSMIFASQQNPVSDVMVNGVWQIKAQQHVEQEQASDNFANLLVRLSAS”, for which the “soluble on expression in E. coli” value is listed as “not soluble”.
For “MSSNNAGESDGTGPALPTVWPGNAYPLGATYDGAGTNFSLFSEIAEKVELCLIDEDGVESRIPLDEVDGYVWHAYLPNITPGQRYGFRVHGPFDPAAGHRCDPSKLLLDPYGKSFHGDFTFGQALYSYDVNAVDPDSTPPMVDSLGHTMTSVVINPFFDWAYDRSPRTPYHETVIYEAHVKGMTQTHPSIPPELRGTYAGLAHPVIIDHLNELNVTAVELMPVHQFLHDSRLLDLGLRNYWGYNTFGFFAPHHQYASTRQAGSAVAEFKTMVRSLHEAGIEVILDVVYNHTAEGNHLGPTINFRGIDNTAYYRLMDHDLRFYKDFTGTGNSLNARHPHTLQLIMDSLRYWVIEMHVDGFRFDLASTLARELHDVDRLSAFFDLVQQDPVVSQVKLIAEPWDVGEGGYQVGNFPGLWTEWNGKYRDTVRDYWRGEPATLGEFASRLTGSSDLYEATGRRPSASINFVTAHDGFTLNDLVSYNDKHNEANGENNRDGESYNRSWNCGVEGPTDDPDILALRARQMRNMWATLMVSQGTPMIAHGDEIGRTQYGNNNVYCQDSELSWMDWSLVDKNADLLAFARKATTLRKNHKVFRRRRFFEGEPIRSGDEVRDIAWLTPSGREMTHEDWGRGFDRCVAVFLNGEAITAPDARGERVVDDSFLLCFNAHDHDVEFVMPHDGYAQQWTGELDTNDPVGDIDLTVTATDTFSVPARSLLVLRKTL” the value was “not soluble”.

Source of the values: the DeepSol protein solubility set.
